Laboratory results from the supplement of paper PMC10724198.
± gives the standard deviation of the averaged measurements.

System: Saccharomyces cerevisiae
Assay: protein stability index of tFT-peptide fusion (C-terminal peptide) (PSI (0-1 scale)); higher = more stable (slower turnover)
Details: genetic background: wild type; temperature: 30 C
Description: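 Multiplexed protein stability (MPS) profiling in S. cerevisiae. Random 12-aa peptides (tFT-X12 library) are fused to the C-terminus of a sfGFP-mCherry tandem fluorescent timer, after mCherry and a GGGS linker. Cells are FACS-sorted into 8 mCherry/sfGFP bins and deep-sequenced. The protein stability index (PSI) is the read-weighted bin average, scaled from 0 (unstable) to 1 (stable). Only peptides with >10 reads are reported; cells were grown at 30 °C in SC-His with glucose.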
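Also: PSI is a weighted mean of sequencing reads over stability bins, variants kept only with over 10 reads, mCherry proximal and sfGFP distal, peptide attached via GGGS linker.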

| Sequence | protein stability index |
| --- | --- |
| IFWRGVVDVCSG | 0.584 ± 0.065 |
| IGATSMSREARY | 0.7052 ± 0.0017 |
| IGCEVLQCRCVD | 0.672 ± 0.014 |
| IGRLQGWSSGDE | 0.688 ± 0.037 |
| IGRWGVRWKAVG | 0.512 ± 0.053 |
| IGSCLSRTRKRR | 0.6922 ± 0.0031 |
| IHEGIKNENFKR | 0.71 ± 0.0053 |
| IHLQGSSYRSLT | 0.68 ± 0.14 |
| IHQDGEQKETRK | 0.6948 ± 0.0047 |
| IHSPCAMRPLIS | 0.672 ± 0.0087 |
| IHSRAAVGEYTG | 0.6425 ± 0.0046 |
| IHTNICKSKDII | 0.706 ± 0.025 |
| IILDRQNRDLKY | 0.634 ± 0.084 |
| IINKRITKETDE | 0.6738 ± 0.0023 |
| IINKRYEFRERT | 0.764 ± 0.03 |
| IISQLEQSFISP | 0.7402 ± 0.0056 |
| IKEITKENNRNE | 0.708 ± 0.083 |
| IKIKKKKKKKRD | 0.665 ± 0.012 |
| IKKEENKNENQE | 0.6809 ± 0.0035 |
| IKKRHQNGGKKE | 0.65 ± 0.0085 |
| IKKRVTFSYDGK | 0.686 ± 0.062 |
| IKMRKICLIGSM | 0.603 ± 0.052 |
| IKRVPRRSEYRG | 0.633 ± 0.043 |
| IKSTYRNPLPPL | 0.657 ± 0.038 |
| IKYEKENNINKI | 0.679 ± 0.039 |

| Sequence | protein stability index |
| --- | --- |
| ILCPIKHKRKGS | 0.703 ± 0.064 |
| ILFLGSLGCPGG | 0.697 ± 0.019 |
| ILGVVLRLCNCQ | 0.7834 ± 0.0055 |
| ILIYFWFSFFFF | 0.753 ± 0.013 |
| ILKKLNQEINKE | 0.698 ± 0.028 |
| ILLSETEMIDAD | 0.683 ± 0.022 |
| ILPPCVNIGSGV | 0.64 ± 0.043 |
| ILQGENKEGINT | 0.668 ± 0.035 |
| ILSRAGMITHCR | 0.642 ± 0.019 |
| ILTAVFAVPILP | 0.57 ± 0.04 |
| INIQKKKKIQHI | 0.508 ± 0.031 |
| INKKKKKKSKQK | 0.7 ± 0.089 |
| INKLRLNKKKSF | 0.659 ± 0.008 |
| INRGGLVRGFGS | 0.725 ± 0.17 |
| INSEKKKDRNKL | 0.779 ± 0.02 |
| INTNASSWRICK | 0.7379 ± 0.0049 |
| INVCVLSSSTAS | 0.684 ± 0.079 |
| IPCLPHPSLPPQ | 0.757 ± 0.039 |
| IPFPSFPASLYR | 0.694 ± 0.021 |
| IPGDTLSTTTVT | 0.67 ± 0.05 |
| IPLGGPTPSNYD | 0.721 ± 0.025 |
| IPSHSVLCLSIY | 0.497 ± 0.042 |
| IQHWGIRRRITY | 0.728 ± 0.066 |
| IQKIKYKRKYIK | 0.73 ± 0.027 |
| IQLPPPYATPPS | 0.645 ± 0.012 |

| Sequence | protein stability index |
| --- | --- |
| IQSRDDTVEGRK | 0.63 ± 0.0095 |
| IRAKKLNKSNNK | 0.7028 ± 0.0053 |
| IREQQKNQNHKE | 0.642 ± 0.051 |
| IRGAARRRTQGY | 0.731 ± 0.038 |
| IRGGGGLGGGGV | 0.703 ± 0.023 |
| IRGIKSRKFTSV | 0.753 ± 0.0079 |
| IRGYSVKRIRED | 0.683 ± 0.045 |
| IRHSTRTRPSSV | 0.745 ± 0.03 |
| IRNACRINESQC | 0.698 ± 0.017 |
| IRPFSPAPPRYP | 0.722 ± 0.075 |
| IRPPPPPPPRAA | 0.59 ± 0.07 |
| IRRSVVRCLFTE | 0.707 ± 0.056 |
| IRTITSVQTFPE | 0.673 ± 0.029 |
| ISCFRLGFVRKI | 0.535 ± 0.0058 |
| ISCGERSRGGGK | 0.6122 ± 0.0029 |
| ISEGKTIIYCLW | 0.523 ± 0.081 |
| ISEGNNQNLSQT | 0.689 ± 0.011 |
| ISEGSSRFRTSL | 0.6542 ± 0.0025 |
| ISFVFSDSLFPI | 0.785 ± 0.012 |
| ISGIKNKKKKGT | 0.684 ± 0.066 |
| ISHPTPQSVPAI | 0.612 ± 0.0063 |
| ISLGVDFSFCSL | 0.7014 ± 0.0042 |
| ISLTSYVCGRVL | 0.648 ± 0.014 |
| ISLWALSQLPVP | 0.79 ± 0.19 |
| ISPGWLSRLWVR | 0.629 ± 0.0083 |

| Sequence | protein stability index |
| --- | --- |
| ISPRLGLPLAPL | 0.732 ± 0.067 |
| ISPTTFSTHDRC | 0.665 ± 0.077 |
| ISQAIMTNPIKE | 0.598 ± 0.14 |
| ISVPMPSFGPLP | 0.6938 ± 0.002 |
| ISVPPFPAPPPP | 0.745 ± 0.13 |
| ISYLSILTSCPW | 0.65423 ± 0.00026 |
| ISYQVDIIKGKI | 0.6781 ± 0.00071 |
| ITFTCRHQGKKK | 0.759 ± 0.095 |
| ITRVGSLENSQV | 0.635 ± 0.013 |
| ITSSPNVGKTTN | 0.713 ± 0.024 |
| ITSWCNVFLGRA | 0.71 ± 0.018 |
| IVADKSPLSSPP | 0.6947 ± 0.0017 |
| IVENSLEEKERR | 0.673 ± 0.056 |
| IVGIEGYNEIKT | 0.803 ± 0.27 |
| IVKFVRAIGRKK | 0.664 ± 0.028 |
| IVPPPHRHRRSI | 0.824 ± 0.064 |
| IVSNLILSKRCN | 0.652 ± 0.064 |
| IVTLPTNPYTPV | 0.717 ± 0.046 |
| IVTQGCLFFLVR | 0.687 ± 0.038 |
| IWTSFKRRRWNF | 0.532 ± 0.033 |
| IWVGNEENEEII | 0.669 ± 0.082 |
| IYSWSAALFHCR | 0.75 ± 0.1 |
| IYVWALSPVTLP | 0.628 ± 0.019 |
| KAGCDYYHRRSF | 0.675 ± 0.061 |
| KAGDRRPDNHSN | 0.66 ± 0.064 |

| Sequence | protein stability index |
| --- | --- |
| KANIKGIKTRIT | 0.642 ± 0.076 |
| KARNIVESGKTQ | 0.722 ± 0.038 |
| KASAASLFILMS | 0.611 ± 0.012 |
| KASEALGYTSNE | 0.675 ± 0.037 |
| KATNLNKVRRWE | 0.693 ± 0.048 |
| KCCRVTCCGGLR | 0.65 ± 0.028 |
| KCLALSAGWIAT | 0.627 ± 0.033 |
| KCRGRGRQEAFE | 0.6643 ± 0.0018 |
| KCVDSREKITMD | 0.672 ± 0.072 |
| KDGGRLRVDQWI | 0.706 ± 0.076 |
| KDKKERTTEKKT | 0.693 ± 0.13 |
| KDLFDLYLKRLL | 0.65 ± 0.0098 |
| KDVYEKHLNKQT | 0.722 ± 0.1 |
| KEDGEIIDRYVL | 0.616 ± 0.074 |
| KEEKLKNKITKY | 0.679 ± 0.011 |
| KEEKRMKLKKLQ | 0.537 ± 0.082 |
| KEEYSYQRVGEL | 0.661 ± 0.015 |
| KEGDMWRVSTLD | 0.682 ± 0.016 |
| KELGGSSEITEI | 0.658 ± 0.072 |
| KELIGITYKNSS | 0.6766 ± 0.0058 |
| KEMRCRKKKEGK | 0.683 ± 0.048 |
| KEQNKKQKAKDL | 0.719 ± 0.1 |
| KEQYFKGSKKPI | 0.651 ± 0.029 |
| KERKNKKINRKF | 0.686 ± 0.093 |
| KEVDGRALVAEE | 0.655 ± 0.035 |

| Sequence | protein stability index |
| --- | --- |
| KEVNEDIDKAKS | 0.782 ± 0.18 |
| KEWGGEGRDAWG | 0.6834 ± 0.0061 |
| KEYKKKKKKIDK | 0.671 ± 0.022 |
| KFIVQNENSGQC | 0.677 ± 0.041 |
| KFKVLKVLEVRL | 0.6453 ± 0.0019 |
| KFLQRTPGHSSE | 0.699 ± 0.048 |
| KGDCGGRGCGRH | 0.682 ± 0.0076 |
| KGKKTKQKRAKK | 0.6521 ± 0.0064 |
| KGKNTEKEEEEK | 0.685 ± 0.019 |
| KGQPTTRVKEEW | 0.654 ± 0.0091 |
| KGRAERKKDKKR | 0.684 ± 0.025 |
| KGRAGTDVPLAR | 0.712 ± 0.052 |
| KGRQVDQALVRG | 0.634 ± 0.019 |
| KGTRKPSTKIIV | 0.667 ± 0.074 |
| KGWGDGPGSYVN | 0.68 ± 0.035 |
| KGYEGGRRCELE | 0.696 ± 0.039 |
| KHCFDIEILRYQ | 0.664 ± 0.016 |
| KHFLFSVVHFSG | 0.696 ± 0.028 |
| KHSTTSRCVWYT | 0.627 ± 0.13 |
| KIDEQNKNKMGM | 0.615 ± 0.082 |
| KIDKLRKRQRKK | 0.664 ± 0.017 |
